Test results: patent US20240100180A1

Experiments:
[1] = target: CLDN18.2 of healthy mouse stomach (mouse) (UniProt P56857); assay: flow cytometry, live cells of healthy mouse stomach, mouse 1, antibody 4 µg/ml
[2] = target: CLDN18.2 of healthy mouse stomach (mouse) (UniProt P56857); assay: flow cytometry, live cells of healthy mouse stomach, mouse 2, antibody 4 µg/ml
[3] = target: CLDN18.2 of healthy mouse stomach (mouse) (UniProt P56857); assay: flow cytometry, live cells of healthy mouse stomach, average of two mice

B1: cCl1-1 (antibody, V domains shown)
VH: QIQLVQSGPELKKPGESVKISCKASGYTFTDYAMHWVKQAPGKGLKWMGWINTYTGKPTYADDFKGRFVFSLEASASTANLQISNLKNEDTATYFCARAVFYGYTMDAWGQGTSVTVSS
VL: DIQMTQSPASLSASLGETISIACRASEDIYSNLAWYQQKSGKSPQLLIFSVKRLQDGVPSRFSGSGSGTQYSLKISGMQPEDEGDYFCLQGSNFPLTFGSGTKLEIK
With B1 the % of positive healthy stomach cells [1] was 0.4%, the % of positive healthy stomach cells [2] was 0.3% and the % of positive healthy stomach cells [3] was 0.35%.
